In experiment [1] the target is PD-1-Fc (Homo sapiens). In words: ForteBio, PD-1-Fc. In general terms: Biolayer interferometry detects binding as a change in optical thickness at a sensor tip.
Experiment [2] deals with PD-1 expressed on cells (human). Kind of experiment: flow cytometry, Jurkat/PD-1 cells. On the technique in general: Flow cytometry measures light scatter and fluorescence of single cells or particles in a stream.
The target is the same in experiment [3]. Kind of experiment: flow cytometry, cells expressing PD-1.

PD-1-Fc (Homo sapiens), sequence (chain, as listed by the source limits assumed): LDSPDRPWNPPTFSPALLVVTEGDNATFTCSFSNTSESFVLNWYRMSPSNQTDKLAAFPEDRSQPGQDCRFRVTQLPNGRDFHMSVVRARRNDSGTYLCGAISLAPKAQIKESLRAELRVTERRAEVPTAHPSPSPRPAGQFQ
PD-1 expressed on cells (human), sequence (chain, as listed by the source): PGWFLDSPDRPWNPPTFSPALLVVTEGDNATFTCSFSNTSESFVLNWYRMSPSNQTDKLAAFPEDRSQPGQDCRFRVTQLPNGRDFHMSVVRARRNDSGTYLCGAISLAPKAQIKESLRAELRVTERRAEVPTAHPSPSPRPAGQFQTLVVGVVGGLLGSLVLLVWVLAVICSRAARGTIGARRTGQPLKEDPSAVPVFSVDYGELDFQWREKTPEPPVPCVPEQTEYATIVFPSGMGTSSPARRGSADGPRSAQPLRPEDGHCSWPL

B1: variant PD-L2 IgV-Fc H15Q (Fc fusion)
chain: LFTVTVPKELYIIEQGSNVTLECNFDTGSHVNLGAITASLQKVENDTSPHRERATLLEEQLPLGKASFHIPQVQVRDEGQYQCIIIYGVAWDYKYLTLKVKA
In experiment [1], B1 came in with a Fortebio binding to PD-1-Fc Response Units (Response Units) of 0.007. For the same molecule, in experiment [2], the Fold increase over wildtype PD-L2 IgV-Fc was 1.63 and the MFI at 50 nM is 16000.

B2: variant PD-L2 IgV-Fc H15Q, T47A (Fc fusion)
chain: LFTVTVPKELYIIEQGSNVTLECNFDTGSHVNLGAITASLQKVENDASPHRERATLLEEQLPLGKASFHIPQVQVRDEGQYQCIIIYGVAWDYKYLTLKVKA
On to B2, for which the Fortebio binding to PD-1-Fc Response Units (Response Units) in experiment [1] turned out to be 0.016. In experiment [2], this molecule registered a Fold increase over wildtype PD-L2 IgV-Fc of 2.7 and an MFI at 50 nM of 26600.

B3: variant PD-L2 IgV-Fc I13V, H15Q, E44V, T47A, Q82R, V89D (Fc fusion)
chain: LFTVTVPKELYIVEQGSNVTLECNFDTGSHVNLGAITASLQKVVNDASPHRERATLLEEQLPLGKASFHIPQVQVRDEGQYRCIIIYGDAWDYKYLTLKVKA
In experiment [2], B3 gave an MFI at 50 nM of 61000.

B4: variant PD-L2 IgV-Fc G28V, Q72H, R76G, I86T (Fc fusion)
chain: LFTVTVPKELYIIEHGSNVTLECNFDTVSHVNLGAITASLQKVENDTSPHRERATLLEEQLPLGKASFHIPHVQVGDEGQYQCIITYGVAWDYKYLTLKVKA
As to B4, the Fortebio binding to PD-1-Fc Response Units (Response Units) in experiment [1] is 0.003. In experiment [2], this molecule gave a Fold increase over wildtype PD-L2 IgV-Fc of 0.57 and an MFI at 50 nM of 5560.

B5: variant PD-L2 IgV-Fc I13V, H15Q, T37A, E44D, S48C, S67L, Q82R, V89D (Fc fusion)
chain: LFTVTVPKELYIVEQGSNVTLECNFDTGSHVNLGAIAASLQKVDNDTCPHRERATLLEEQLPLGKALFHIPQVQVRDEGQYRCIIIYGDAWDYKYLTLKVKA
As for B5, the Fortebio binding to PD-1-Fc Response Units (Response Units) in experiment [1] is 1.25.

B6: variant PD-L2 IgV-Fc H15Q, E44D, R76G, I85F (Fc fusion)
chain: LFTVTVPKELYIIEQGSNVTLECNFDTGSHVNLGAITASLQKVDNDTSPHRERATLLEEQLPLGKASFHIPQVQVGDEGQYQCIFIYGVAWDYKYLTLKVKA
In experiment [2], B6 returned an MFI at 50 nM of 2880.

B7: variant PD-L2 IgV-Fc I13V, E44D, Q82R, V89D (Fc fusion)
chain: LFTVTVPKELYIVEHGSNVTLECNFDTGSHVNLGAITASLQKVDNDTSPHRERATLLEEQLPLGKASFHIPQVQVRDEGQYRCIIIYGDAWDYKYLTLKVKA
B7 came in with a Fortebio binding to PD-1-Fc Response Units (Response Units) in experiment [1] of 1.28. Moreover, in experiment [2], the Fold increase over wildtype PD-L2 IgV-Fc stood at 4.59 and the MFI at 50 nM came to 45200.

B8: variant PD-L2 IgV-Fc I13V, H15Q, T47A, R76G, V89D (Fc fusion)
chain: LFTVTVPKELYIVEQGSNVTLECNFDTGSHVNLGAITASLQKVENDASPHRERATLLEEQLPLGKASFHIPQVQVGDEGQYQCIIIYGDAWDYKYLTLKVKA
For the molecule B8, in experiment [1], the Fortebio binding to PD-1-Fc Response Units (Response Units) came out at 1.6.

B9: variant PD-L2 IgV-Fc H15Q, S67L, R76G, I85F (Fc fusion)
chain: LFTVTVPKELYIIEQGSNVTLECNFDTGSHVNLGAITASLQKVENDTSPHRERATLLEEQLPLGKALFHIPQVQVGDEGQYQCIFIYGVAWDYKYLTLKVKA
B9: in experiment [1], the Fortebio binding to PD-1-Fc Response Units (Response Units) was determined as 0.025. In experiment [2], this molecule registered a Fold increase over wildtype PD-L2 IgV-Fc of 0.29 and an MFI at 50 nM of 2870.

B10: variant PD-L2 IgV-Fc S67L, V89D (Fc fusion)
chain: LFTVTVPKELYIIEHGSNVTLECNFDTGSHVNLGAITASLQKVENDTSPHRERATLLEEQLPLGKALFHIPQVQVRDEGQYQCIIIYGDAWDYKYLTLKVKA
As for B10, the MFI at 50 nM in experiment [2] is 16000.

B11: variant PD-L2 IgV-Fc E44D (Fc fusion)
chain: LFTVTVPKELYIIEHGSNVTLECNFDTGSHVNLGAITASLQKVDNDTSPHRERATLLEEQLPLGKASFHIPQVQVRDEGQYQCIIIYGVAWDYKYLTLKVKA
Regarding B11, the Fortebio binding to PD-1-Fc Response Units (Response Units) in experiment [1] was -0.006. In experiment [2], this molecule came in with a Fold increase over wildtype PD-L2 IgV-Fc of 0.3 and an MFI at 50 nM of 2930.

B12: variant PD-L2 IgV-Fc S67L, I85F (Fc fusion)
chain: LFTVTVPKELYIIEHGSNVTLECNFDTGSHVNLGAITASLQKVENDTSPHRERATLLEEQLPLGKALFHIPQVQVRDEGQYQCIFIYGVAWDYKYLTLKVKA
The molecule B12 yielded a Fortebio binding to PD-1-Fc Response Units (Response Units) in experiment [1] of -0.005. In experiment [2], this molecule showed a Fold increase over wildtype PD-L2 IgV-Fc of 0.05 and an MFI at 50 nM of 529.

B13: variant PD-L2 IgV-Fc H15Q, T47A, Q72H, R76G, I86T (Fc fusion)
chain: LFTVTVPKELYIIEQGSNVTLECNFDTGSHVNLGAITASLQKVENDASPHRERATLLEEQLPLGKASFHIPHVQVGDEGQYQCIITYGVAWDYKYLTLKVKA
In experiment [1], B13 came in with a Fortebio binding to PD-1-Fc Response Units (Response Units) of 0.512. In experiment [2], the Fold increase over wildtype PD-L2 IgV-Fc came out at 3.26 and the MFI at 50 nM amounted to 32100.

B14: variant PD-L2 IgV-Fc H15Q, N24S, T47A, Q72H, R76G, V89D (Fc fusion)
chain: LFTVTVPKELYIIEQGSNVTLECSFDTGSHVNLGAITASLQKVENDASPHRERATLLEEQLPLGKASFHIPHVQVGDEGQYQCIIIYGDAWDYKYLTLKVKA
In experiment [1], B14 registered a Fortebio binding to PD-1-Fc Response Units (Response Units) of 0.4.

B15: variant PD-L2 IgV-Fc H15Q, Q82R, V89D (Fc fusion)
chain: LFTVTVPKELYIIEQGSNVTLECNFDTGSHVNLGAITASLQKVENDTSPHRERATLLEEQLPLGKASFHIPQVQVRDEGQYRCIIIYGDAWDYKYLTLKVKA
Molecule B15 returned a Fortebio binding to PD-1-Fc Response Units (Response Units) in experiment [1] of 1.2.

B16: variant PD-L2 IgV-Fc V89D (Fc fusion)
chain: LFTVTVPKELYIIEHGSNVTLECNFDTGSHVNLGAITASLQKVENDTSPHRERATLLEEQLPLGKASFHIPQVQVRDEGQYQCIIIYGDAWDYKYLTLKVKA
B16 returned a Fortebio binding to PD-1-Fc Response Units (Response Units) in experiment [1] of 0.005. In experiment [2], this molecule had a Fold increase over wildtype PD-L2 IgV-Fc of 0.34 and an MFI at 50 nM of 3360.

B17: variant PD-L2 IgV-Fc H15Q, C23S, I86T (Fc fusion)
chain: LFTVTVPKELYIIEQGSNVTLESNFDTGSHVNLGAITASLQKVENDTSPHRERATLLEEQLPLGKASFHIPQVQVRDEGQYQCIITYGVAWDYKYLTLKVKA
With B17, the MFI at 50 nM in experiment [2] is 830.

B18: variant PD-L2 IgV-Fc I13V, H15Q, R76G, I85F (Fc fusion)
chain: LFTVTVPKELYIVEQGSNVTLECNFDTGSHVNLGAITASLQKVENDTSPHRERATLLEEQLPLGKASFHIPQVQVGDEGQYQCIFIYGVAWDYKYLTLKVKA
For B18, in experiment [1], the Fortebio binding to PD-1-Fc Response Units (Response Units) was -0.04. In experiment [2], this molecule showed a Fold increase over wildtype PD-L2 IgV-Fc of 0.48 and an MFI at 50 nM of 4740.

B19: variant PD-L2 IgV-Fc Q82R, V89D (Fc fusion)
chain: LFTVTVPKELYIIEHGSNVTLECNFDTGSHVNLGAITASLQKVENDTSPHRERATLLEEQLPLGKASFHIPQVQVRDEGQYRCIIIYGDAWDYKYLTLKVKA
The molecule B19 returned an MFI at 50 nM in experiment [2] of 45000.

B20: variant PD-L2 IgV-Fc E44D, V89D, W91R (Fc fusion)
chain: LFTVTVPKELYIIEHGSNVTLECNFDTGSHVNLGAITASLQKVDNDTSPHRERATLLEEQLPLGKASFHIPQVQVRDEGQYQCIIIYGDARDYKYLTLKVKA
Molecule B20 returned an MFI at 50 nM in experiment [2] of 614.

B21: variant PD-L2 IgV-Fc N24D (Fc fusion)
chain: LFTVTVPKELYIIEHGSNVTLECDFDTGSHVNLGAITASLQKVENDTSPHRERATLLEEQLPLGKASFHIPQVQVRDEGQYQCIIIYGVAWDYKYLTLKVKA
Turning to B21, the Fortebio binding to PD-1-Fc Response Units (Response Units) in experiment [1] was -0.039. In experiment [2], this molecule gave a Fold increase over wildtype PD-L2 IgV-Fc of 0.14 and an MFI at 50 nM of 1410.

B22: variant PD-L2 IgV-Fc H15Q, K65R (Fc fusion)
chain: LFTVTVPKELYIIEQGSNVTLECNFDTGSHVNLGAITASLQKVENDTSPHRERATLLEEQLPLGRASFHIPQVQVRDEGQYQCIIIYGVAWDYKYLTLKVKA
Consider B22, for which the Fortebio binding to PD-1-Fc Response Units (Response Units) in experiment [1] was -0.001. Also, in experiment [2], the Fold increase over wildtype PD-L2 IgV-Fc stood at 1.37 and the MFI at 50 nM is 13500.

B23: variant PD-L2 IgV-Fc H15Q, V89D (Fc fusion)
chain: LFTVTVPKELYIIEQGSNVTLECNFDTGSHVNLGAITASLQKVENDTSPHRERATLLEEQLPLGKASFHIPQVQVRDEGQYQCIIIYGDAWDYKYLTLKVKA
Molecule B23 gave a Fortebio binding to PD-1-Fc Response Units (Response Units) in experiment [1] of 0.31. In experiment [2], this molecule gave a Fold increase over wildtype PD-L2 IgV-Fc of 1.8 and an MFI at 50 nM of 17700.

B24: Wild Type PD-L2 IgV (Fc fusion)
chain: LFTVTVPKELYIIEHGSNVTLECNFDTGSHVNLGAITASLQKVENDTSPHRERATLLEEQLPLGKASFHIPQVQVRDEGQYQCIIIYGVAWDYKYLTLKVKA
In turn, B24 returned an MFI at 50 nM in experiment [2] of 9840.

B25: variant PD-L2 IgV-Fc H15Q, Q72H, Q74R, R76G, I86T (Fc fusion)
chain: LFTVTVPKELYIIEQGSNVTLECNFDTGSHVNLGAITASLQKVENDTSPHRERATLLEEQLPLGKASFHIPHVRVGDEGQYQCIITYGVAWDYKYLTLKVKA
The molecule B25 came in with an MFI at 50 nM in experiment [2] of 4050.

B26: variant PD-L2 IgV-Fc H15Q, Q72H, V89D (Fc fusion)
chain: LFTVTVPKELYIIEQGSNVTLECNFDTGSHVNLGAITASLQKVENDTSPHRERATLLEEQLPLGKASFHIPHVQVRDEGQYQCIIIYGDAWDYKYLTLKVKA
For B26, in experiment [2], the MFI at 50 nM was 12600.

B27: variant PD-L2 IgV-Fc I13V, H15Q, T47A, Q82R, V89D (SEQ ID NO 725) (Fc fusion)
chain: LFTVTVPKELYIVEQGSNVTLECDFDTGSHVNLGAITASLQKVENDTSPHRERATLLEEQLPLGKASFHIPQVQVRDEGQYRCIIIYGDAWDYKYLTLKVKA
Regarding B27, the Fortebio binding to PD-1-Fc Response Units (Response Units) in experiment [1] is 1.45. Moreover, in experiment [2], the Fold increase over wildtype PD-L2 IgV-Fc was determined as 6.2 and the MFI at 50 nM is 61000.

B28: variant PD-L1 ECD-Fc I36S, M41K, M97L, K144Q, R195G, E200K, H202Q, L206F (Fc fusion)
chain: FTVTVPKDLYVVEYGSNMTIECKFPVEKQLDLAALSVYWEKEDKNIIQFVHGEEDLKVQHSSYRQRARLLKDQLSLGNAALQITDVKLQDAGVYRCLISYGGADYKRITVKVNAPYNKINQRILVVDPVTSEHELTCQAEGYPQAEVIWTSSDHQVLSGKTTTTNSKREEKLFNVTSTLRINTTTNEIFYCTFRGLDPEKNQTAEFVIPELPLAHPPNER
Consider B28, for which the MFI at 20 nM in experiment [3] was determined as 3500.

The values above are taken from patent publication US20230381229A1.
